From publication PMC9482650, “Quantitative fragmentomics allow affinity mapping of interactomes” (Nature Communications, 2022) come the findings set out here.

The term pKd denotes the Kd on a negative log10 scale, so that one unit is a factor of ten.

Where a chain is given by its changes, count along the chain named.

Among the targets are GOPC, Q9HD26; GRID2IP_2, A4D2P6; HTRA1, Q92743; IL16_4, Q14005; Inadl_6, Q8NI35; MAGI2_2, Q86UL8; MAGI2_4, Q86UL8; MAGI2_6, Q86UL8; MAGI3_2, Q5TCQ9; SCRIB_1, Q14160; TJP2_1, Q9UDY2.
What all share (experiment): holdup assay
What all share (parameters): key: below the threshold = too weak to quantify, mostly under pKd 3.1 to 4

Another assay addresses T1, ARHGEF11, O15085.
T1 sequence (O15085 42-136, limits assumed, looked up): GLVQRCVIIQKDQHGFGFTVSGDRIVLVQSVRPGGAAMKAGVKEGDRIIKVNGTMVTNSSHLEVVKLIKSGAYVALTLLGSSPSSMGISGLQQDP

For another assay, the target named is T2, CARD11, Q9BXL7.
T2 sequence (Q9BXL7 662-765, limits assumed, looked up): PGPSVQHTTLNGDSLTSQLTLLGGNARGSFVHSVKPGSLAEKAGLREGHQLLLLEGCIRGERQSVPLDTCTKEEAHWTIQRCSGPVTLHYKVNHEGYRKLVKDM

For a further assay, the target named is T3, DLG3_2, Q92796.
T3 sequence (Q92796 221-321, limits assumed, looked up): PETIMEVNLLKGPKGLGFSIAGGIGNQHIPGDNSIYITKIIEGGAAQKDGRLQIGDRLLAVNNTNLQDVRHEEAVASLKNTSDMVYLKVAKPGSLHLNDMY

Another assay concerns the target T4, GRIP1_5, Q9Y3R0.
T4 sequence (Q9Y3R0 568-668, limits assumed, looked up): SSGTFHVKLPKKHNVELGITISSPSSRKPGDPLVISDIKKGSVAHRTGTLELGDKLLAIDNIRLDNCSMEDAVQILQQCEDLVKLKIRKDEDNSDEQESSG

In a further assay the target is T5, LIN7A, O14910.
T5 sequence (O14910 103-200, limits assumed, looked up): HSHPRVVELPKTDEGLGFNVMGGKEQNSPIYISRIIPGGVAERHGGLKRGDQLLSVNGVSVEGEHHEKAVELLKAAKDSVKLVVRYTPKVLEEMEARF

In the next assay the target is T6, LIN7B, Q9HAP6.
T6 sequence (Q9HAP6 88-185, limits assumed, looked up): T5 sequence (O14910 103-200, limits assumed, looked up) with S2A, V20I, I35V, E42D, H65Q, K77Q, D78G, K89R

The target in another assay is T7, LIN7C, Q9NUP9.
T7 sequence (Q9NUP9 88-185, limits assumed, looked up): T5 sequence (O14910 103-200, limits assumed, looked up) with D13E, V20I, V40I, E42D, K77Q, D78G, S79K, A96S

The target in the next assay is T8, NHERF3_4, Q5T2W1.
T8 sequence (Q5T2W1 373-468, limits assumed, looked up): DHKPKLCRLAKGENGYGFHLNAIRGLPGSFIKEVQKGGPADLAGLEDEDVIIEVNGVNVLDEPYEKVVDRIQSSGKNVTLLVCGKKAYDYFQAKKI

The next assay concerns the target T9, PARD3B_1, Q8TEW8.
T9 sequence (Q8TEW8 196-299, limits assumed, looked up): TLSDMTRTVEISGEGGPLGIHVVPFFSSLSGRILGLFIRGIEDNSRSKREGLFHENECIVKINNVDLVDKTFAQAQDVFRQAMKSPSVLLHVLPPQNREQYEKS

Another assay concerns the target T10, PTPN13_1, Q12923.
T10 sequence (Q12923 1088-1188, limits assumed, looked up): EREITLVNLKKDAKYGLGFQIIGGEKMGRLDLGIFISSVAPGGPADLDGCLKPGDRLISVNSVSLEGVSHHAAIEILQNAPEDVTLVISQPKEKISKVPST

The next assay concerns the target T11, RHPN1, Q8TCX5.
T11 sequence (Q8TCX5 508-602, limits assumed, looked up): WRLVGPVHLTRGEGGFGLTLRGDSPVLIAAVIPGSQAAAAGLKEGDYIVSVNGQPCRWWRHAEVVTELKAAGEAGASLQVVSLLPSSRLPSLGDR

The next assay addresses T12, SNTG2, Q9NY99.
T12 sequence (Q9NY99 68-166, limits assumed, looked up): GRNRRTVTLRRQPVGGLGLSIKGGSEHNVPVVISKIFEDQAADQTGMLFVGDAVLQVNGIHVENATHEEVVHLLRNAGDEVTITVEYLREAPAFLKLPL

The target in another assay is T13, TIAM2, Q8IVF5.
T13 sequence (Q8IVF5 885-986, limits assumed, looked up): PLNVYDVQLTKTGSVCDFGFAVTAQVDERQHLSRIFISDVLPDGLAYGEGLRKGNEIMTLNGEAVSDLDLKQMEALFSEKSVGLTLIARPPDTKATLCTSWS

Where [1] appears, read: plain residues with an end cap or a label only (N-terminal biotin on a linker: ahx).
Setting [2] is: plain residues with an end cap or a label only (N-terminal biotin on a linker: ttds).
Setting [3] is: plain residues with an end cap or a label only (N-terminal biotin on a linker: gsgsgs; C-terminal amide).

Inadl_6, Q8NI35, sequence (Q8NI35 1058-1167): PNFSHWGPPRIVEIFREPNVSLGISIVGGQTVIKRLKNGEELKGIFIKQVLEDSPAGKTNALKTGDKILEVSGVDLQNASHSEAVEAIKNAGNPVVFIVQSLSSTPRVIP
MAGI2_2, Q86UL8, sequence (Q86UL8 410-522): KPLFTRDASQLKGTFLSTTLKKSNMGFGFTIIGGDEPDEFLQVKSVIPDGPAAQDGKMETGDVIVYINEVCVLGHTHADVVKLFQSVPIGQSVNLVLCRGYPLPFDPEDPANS
SCRIB_1, Q14160, sequence (Q14160 718-814): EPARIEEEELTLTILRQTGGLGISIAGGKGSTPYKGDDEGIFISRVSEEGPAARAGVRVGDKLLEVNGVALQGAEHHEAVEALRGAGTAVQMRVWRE
MAGI2_6, Q86UL8, sequence (Q86UL8 1141-1229): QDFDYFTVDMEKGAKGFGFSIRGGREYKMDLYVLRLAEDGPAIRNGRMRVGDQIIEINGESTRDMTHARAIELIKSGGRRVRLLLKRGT
MAGI2_4, Q86UL8, sequence (Q86UL8 772-865): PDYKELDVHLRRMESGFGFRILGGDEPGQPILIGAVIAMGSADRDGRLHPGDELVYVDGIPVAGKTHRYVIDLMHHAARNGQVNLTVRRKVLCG
GRID2IP_2, A4D2P6, sequence (A4D2P6 272-370): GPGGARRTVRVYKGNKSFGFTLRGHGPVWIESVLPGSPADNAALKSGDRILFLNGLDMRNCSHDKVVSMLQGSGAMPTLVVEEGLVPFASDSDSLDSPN
TJP2_1, Q9UDY2, sequence (Q9UDY2 24-128): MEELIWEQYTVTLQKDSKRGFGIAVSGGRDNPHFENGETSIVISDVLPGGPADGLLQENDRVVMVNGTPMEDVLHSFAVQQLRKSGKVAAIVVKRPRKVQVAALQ
HTRA1, Q92743, sequence (Q92743 360-477): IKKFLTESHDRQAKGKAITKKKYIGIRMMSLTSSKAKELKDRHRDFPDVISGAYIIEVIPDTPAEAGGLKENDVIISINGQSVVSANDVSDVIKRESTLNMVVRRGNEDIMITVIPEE
MAGI3_2, Q5TCQ9, sequence (Q5TCQ9 398-503): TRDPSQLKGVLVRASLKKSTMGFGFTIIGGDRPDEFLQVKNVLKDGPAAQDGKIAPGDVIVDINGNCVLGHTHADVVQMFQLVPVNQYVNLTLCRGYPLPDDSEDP
IL16_4, Q14005, sequence (Q14005 1229-1329): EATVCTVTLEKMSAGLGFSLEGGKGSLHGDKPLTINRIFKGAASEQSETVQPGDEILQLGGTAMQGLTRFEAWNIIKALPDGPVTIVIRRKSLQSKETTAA

For HTHSYIETHV [CNKSR2, Q8WXI2], the pKd result was “below the threshold” with ARHGEF11, O15085 (setting [1]); “below the threshold” with CARD11, Q9BXL7 (setting [1]); 5.04 in the assay with DLG3_2, Q92796 (setting [1]); “below the threshold” with GOPC, Q9HD26 (setting [1]); “below the threshold” in the assay with GRID2IP_2, A4D2P6 (setting [1]); “below the threshold” in the assay with GRIP1_5, Q9Y3R0 (setting [1]). Further, the pKd with HTRA1, Q92743 (setting [1]) is 3.84; with IL16_4, Q14005 (setting [1]) it was “below the threshold”; with Inadl_6, Q8NI35 (setting [1]), 4.22; with LIN7A, O14910 (setting [1]) it was “below the threshold”; in the assay with LIN7B, Q9HAP6 (setting [1]), “below the threshold”; in the assay with LIN7C, Q9NUP9 (setting [1]), 3.67. Besides, the pKd was 4.37 in the assay with MAGI2_2, Q86UL8 (setting [1]); “below the threshold” with MAGI2_4, Q86UL8 (setting [1]); 4.41 in the assay with MAGI2_6, Q86UL8 (setting [1]); 4.69 in the assay with MAGI3_2, Q5TCQ9 (setting [1]); “below the threshold” in the assay with NHERF3_4, Q5T2W1 (setting [1]); “below the threshold” with PARD3B_1, Q8TEW8 (setting [1]). For the same molecule, the pKd result with PTPN13_1, Q12923 (setting [1]) was “below the threshold”; with RHPN1, Q8TCX5 (setting [1]), 5.21; with SCRIB_1, Q14160 (setting [1]), 5.64; with SNTG2, Q9NY99 (setting [1]) it was 4.67; with TIAM2, Q8IVF5 (setting [1]), 3.81; in the assay with TJP2_1, Q9UDY2 (setting [1]), 4.46.

Regarding IYVPEAQTRL [DLGAP4, Q9Y2H0], the negative logarithm of the Kd (pKd) with ARHGEF11, O15085 (setting [2]) is 3.7; in the assay with CARD11, Q9BXL7 (setting [2]), “below the threshold”; with DLG3_2, Q92796 (setting [2]) it was “below the threshold”; in the assay with GOPC, Q9HD26 (setting [2]) it was 4.21; with GRID2IP_2, A4D2P6 (setting [2]), 4.08; in the assay with GRIP1_5, Q9Y3R0 (setting [2]) it was “below the threshold”. The pKd with HTRA1, Q92743 (setting [2]) was 3.63; with IL16_4, Q14005 (setting [2]), “below the threshold”; with Inadl_6, Q8NI35 (setting [2]) it was “below the threshold”; in the assay with LIN7A, O14910 (setting [2]), “below the threshold”; in the assay with LIN7B, Q9HAP6 (setting [2]) it was “below the threshold”; with LIN7C, Q9NUP9 (setting [2]), “below the threshold”. The pKd entry with MAGI2_2, Q86UL8 (setting [2]) was “below the threshold”; in the assay with MAGI2_4, Q86UL8 (setting [2]), “below the threshold”; with MAGI2_6, Q86UL8 (setting [2]) it was “below the threshold”; with MAGI3_2, Q5TCQ9 (setting [2]) it was “below the threshold”; in the assay with NHERF3_4, Q5T2W1 (setting [2]), 3.87; in the assay with PARD3B_1, Q8TEW8 (setting [2]), 4.16. In addition, the negative-log Kd (pKd) result in the assay with PTPN13_1, Q12923 (setting [2]) was “below the threshold”; with RHPN1, Q8TCX5 (setting [2]), 4.42; in the assay with SCRIB_1, Q14160 (setting [2]), 5.3; with SNTG2, Q9NY99 (setting [2]), 4.67; with TIAM2, Q8IVF5 (setting [2]), “below the threshold”; with TJP2_1, Q9UDY2 (setting [2]), “below the threshold”.

Consider ERKLSSESQV [LRP4, O75096], for which the pKd result with ARHGEF11, O15085 (setting [2]) was “below the threshold”; in the assay with CARD11, Q9BXL7 (setting [2]), “below the threshold”; with DLG3_2, Q92796 (setting [2]), 4.6; with GOPC, Q9HD26 (setting [2]), “below the threshold”; with GRID2IP_2, A4D2P6 (setting [2]) it was “below the threshold”; with GRIP1_5, Q9Y3R0 (setting [2]) it was “below the threshold”. The pKd entry is listed as “below the threshold” in the assay with HTRA1, Q92743 (setting [2]); “below the threshold” with IL16_4, Q14005 (setting [2]); “below the threshold” with Inadl_6, Q8NI35 (setting [2]); “below the threshold” with LIN7A, O14910 (setting [2]); “below the threshold” in the assay with LIN7B, Q9HAP6 (setting [2]); “below the threshold” with LIN7C, Q9NUP9 (setting [2]). The pKd is 4.79 with MAGI2_2, Q86UL8 (setting [2]); 3.83 with MAGI2_4, Q86UL8 (setting [2]); 3.51 in the assay with MAGI2_6, Q86UL8 (setting [2]); 5.17 with MAGI3_2, Q5TCQ9 (setting [2]); “below the threshold” with NHERF3_4, Q5T2W1 (setting [2]); “below the threshold” with PARD3B_1, Q8TEW8 (setting [2]). The pKd result was “below the threshold” with PTPN13_1, Q12923 (setting [2]); 3.96 in the assay with RHPN1, Q8TCX5 (setting [2]); 3.63 with SCRIB_1, Q14160 (setting [2]); 4.1 in the assay with SNTG2, Q9NY99 (setting [2]); “below the threshold” in the assay with TIAM2, Q8IVF5 (setting [2]); “below the threshold” with TJP2_1, Q9UDY2 (setting [2]).

On to TLSLTDSSVDGIPPYR [AXIN1_int, O15169], for which the negative-log Kd (pKd) result in the assay with ARHGEF11, O15085 (setting [3]) was “below the threshold”; with CARD11, Q9BXL7 (setting [3]), “below the threshold”; in the assay with DLG3_2, Q92796 (setting [3]) it was 4.08; with GOPC, Q9HD26 (setting [3]), “below the threshold”; with GRID2IP_2, A4D2P6 (setting [3]) it was “below the threshold”; in the assay with GRIP1_5, Q9Y3R0 (setting [3]), “below the threshold”. Moreover, the negative logarithm of the Kd (pKd) entry with HTRA1, Q92743 (setting [3]) is “below the threshold”; in the assay with IL16_4, Q14005 (setting [3]), “below the threshold”; with Inadl_6, Q8NI35 (setting [3]) it was “below the threshold”; with LIN7A, O14910 (setting [3]), “below the threshold”; with LIN7B, Q9HAP6 (setting [3]) it was 3.72; with LIN7C, Q9NUP9 (setting [3]) it was 3.97. In addition, the pKd entry is reported as “below the threshold” in the assay with MAGI2_2, Q86UL8 (setting [3]); “below the threshold” with MAGI2_4, Q86UL8 (setting [3]); “below the threshold” with MAGI2_6, Q86UL8 (setting [3]); “below the threshold” in the assay with MAGI3_2, Q5TCQ9 (setting [3]); “below the threshold” with NHERF3_4, Q5T2W1 (setting [3]); “below the threshold” in the assay with PARD3B_1, Q8TEW8 (setting [3]). Further, the pKd with PTPN13_1, Q12923 (setting [3]) is 3.5; with RHPN1, Q8TCX5 (setting [3]), “below the threshold”; with SCRIB_1, Q14160 (setting [3]), “below the threshold”; in the assay with SNTG2, Q9NY99 (setting [3]), “below the threshold”; with TIAM2, Q8IVF5 (setting [3]) it was 3.9; in the assay with TJP2_1, Q9UDY2 (setting [3]), “below the threshold”.
